Reference: the supplement of paper PMC9233669
This sample holds only a part of the variants without activity.

Key:
biotinyl-Leu-oxazolone = test: self-aminoacylation, catalytic enhancement (BLO) (fold over background); higher = more active; k-Seq, kA / k0A0; sequences stand for … in GGGAAUGGAUCCACAUCUACGAAUUC…UUCACUGCAGACUUGACGAAGCUG
How it was run: (§1)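 Mutagenized RNA pools with a 21-nt variable region (0.43 μM) were reacted with each biotinyl-aminoacyl-oxazolone at 2–1250 μM for 90 minutes at room temperature, in 50 μL HEPES/NaCl/KCl/MgCl2/CaCl2 buffer containing 5% acetonitrile at pH 6.9–7.0. RNA captured on streptavidin was quantified by triplicate qPCR and by Illumina sequencing. The fraction reacted for each sequence was fit to a pseudo-first-order model with bootstrapping, and catalytic enhancement is the median kA divided by the uncatalyzed rate, taken as the low-activity peak of a bimodal Gaussian fit.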

biotinyl-Phe-oxazolone = test: self-aminoacylation, catalytic enhancement (BFO) (fold over background); higher = more active; k-Seq, kA / k0A0; sequences stand for … in GGGAAUGGAUCCACAUCUACGAAUUC…UUCACUGCAGACUUGACGAAGCUG
How it was run: as §1

biotinyl-Met-oxazolone = test: self-aminoacylation, catalytic enhancement (BMO) (fold over background); higher = more active; k-Seq, kA / k0A0; sequences stand for … in GGGAAUGGAUCCACAUCUACGAAUUC…UUCACUGCAGACUUGACGAAGCUG
How it was run: as §1

biotinyl-Trp-oxazolone = test: self-aminoacylation, catalytic enhancement (BWO) (fold over background); higher = more active; k-Seq, kA / k0A0; sequences stand for … in GGGAAUGGAUCCACAUCUACGAAUUC…UUCACUGCAGACUUGACGAAGCUG
How it was run: as §1

AAGCUUGCUAACAGUCGCAAG [Fam3.1 aminoacylation ribozyme variant]
self-aminoacylation (biotinyl-Leu-oxazolone): 2.5
self-aminoacylation (biotinyl-Phe-oxazolone): 3.33
self-aminoacylation (biotinyl-Met-oxazolone): 2.4

AAGUGUGCUAAUAGUCGCGAG [Fam3.1 aminoacylation ribozyme variant]
self-aminoacylation (biotinyl-Leu-oxazolone): 2.47
self-aminoacylation (biotinyl-Trp-oxazolone): 2.41

AAGUUUACUAAAAGUCGCAAG [Fam3.1 aminoacylation ribozyme variant]
self-aminoacylation (biotinyl-Leu-oxazolone): 2.08
self-aminoacylation (biotinyl-Phe-oxazolone): 2.76

AAGUUUGUUAAUAGUCGCAGG [Fam3.1 aminoacylation ribozyme variant]
self-aminoacylation (biotinyl-Leu-oxazolone): 2.45
self-aminoacylation (biotinyl-Phe-oxazolone): 5.46
self-aminoacylation (biotinyl-Trp-oxazolone): 2.06

AAUUUUGCUAAUAGUCGCAUG [Fam3.1 aminoacylation ribozyme variant]
self-aminoacylation (biotinyl-Phe-oxazolone): 3.03
self-aminoacylation (biotinyl-Met-oxazolone): 2.28
self-aminoacylation (biotinyl-Trp-oxazolone): 3.4

ACGUUUGCCAAUAGUCGCAAG [Fam3.1 aminoacylation ribozyme variant]
self-aminoacylation (biotinyl-Leu-oxazolone): 2.16
self-aminoacylation (biotinyl-Phe-oxazolone): 6.32
self-aminoacylation (biotinyl-Met-oxazolone): 2.04

ACGUUUGCUAAUAGUCGCCAG [Fam3.1 aminoacylation ribozyme variant]
self-aminoacylation (biotinyl-Phe-oxazolone): 2.03
self-aminoacylation (biotinyl-Met-oxazolone): 2.26
self-aminoacylation (biotinyl-Trp-oxazolone): 2.59

AGGUCUGCUAAUAGUCGCAAG [Fam3.1 aminoacylation ribozyme variant]
self-aminoacylation (biotinyl-Phe-oxazolone): 37
self-aminoacylation (biotinyl-Met-oxazolone): 2.08
self-aminoacylation (biotinyl-Trp-oxazolone): 9.95

AUCCACCUAGGUCAUAGGGUG [Fam2.2 aminoacylation ribozyme variant]
self-aminoacylation (biotinyl-Leu-oxazolone): 2.16
self-aminoacylation (biotinyl-Phe-oxazolone): 2.19
self-aminoacylation (biotinyl-Trp-oxazolone): 2.2

AUGACCCUGGUCAUCAAGUGA [Fam2.1 aminoacylation ribozyme variant]
self-aminoacylation (biotinyl-Leu-oxazolone): 2.28
self-aminoacylation (biotinyl-Phe-oxazolone): 2.74
self-aminoacylation (biotinyl-Met-oxazolone): 2.4
self-aminoacylation (biotinyl-Trp-oxazolone): 2.06

AUUAACCUAGAUCAUCGGGUG [Fam2.2 aminoacylation ribozyme variant]
self-aminoacylation (biotinyl-Leu-oxazolone): 2.84
self-aminoacylation (biotinyl-Phe-oxazolone): 14.9
self-aminoacylation (biotinyl-Met-oxazolone): 2.81
self-aminoacylation (biotinyl-Trp-oxazolone): 2.54

AUUACCCUGCUCUUCGAGUGA [Fam2.1 aminoacylation ribozyme variant]
self-aminoacylation (biotinyl-Leu-oxazolone): 2.36
self-aminoacylation (biotinyl-Phe-oxazolone): 2.38
self-aminoacylation (biotinyl-Met-oxazolone): 2.02
self-aminoacylation (biotinyl-Trp-oxazolone): 2.72

AUUACCCUGGGCAUCGAGUGU [Fam2.1 aminoacylation ribozyme variant]
self-aminoacylation (biotinyl-Phe-oxazolone): 2.53
self-aminoacylation (biotinyl-Met-oxazolone): 2.02
self-aminoacylation (biotinyl-Trp-oxazolone): 2.31

AUUACCCUGGGGAUCGAGUGA [Fam2.1 aminoacylation ribozyme variant]
self-aminoacylation (biotinyl-Leu-oxazolone): 3.34
self-aminoacylation (biotinyl-Phe-oxazolone): 14.1
self-aminoacylation (biotinyl-Met-oxazolone): 2.55
self-aminoacylation (biotinyl-Trp-oxazolone): 3.94

AUUACCCUGGUACUCGAGUGA [Fam2.1 aminoacylation ribozyme variant]
self-aminoacylation (biotinyl-Leu-oxazolone): 2.66
self-aminoacylation (biotinyl-Phe-oxazolone): 10.3
self-aminoacylation (biotinyl-Met-oxazolone): 2.66
self-aminoacylation (biotinyl-Trp-oxazolone): 3.35

AUUACCCUGGUCAUCCAGUGC [Fam2.1 aminoacylation ribozyme variant]
self-aminoacylation (biotinyl-Leu-oxazolone): 2.19
self-aminoacylation (biotinyl-Phe-oxazolone): 5.75

AUUACCCUGGUCAUCGAGAAA [Fam2.1 aminoacylation ribozyme variant]
self-aminoacylation (biotinyl-Leu-oxazolone): 2.97
self-aminoacylation (biotinyl-Phe-oxazolone): 5.05
self-aminoacylation (biotinyl-Met-oxazolone): 2.8
self-aminoacylation (biotinyl-Trp-oxazolone): 2.58

AUUACCCUGGUCGUGGAGUGA [Fam2.1 aminoacylation ribozyme variant]
self-aminoacylation (biotinyl-Leu-oxazolone): 2.42
self-aminoacylation (biotinyl-Phe-oxazolone): 12.3
self-aminoacylation (biotinyl-Met-oxazolone): 2.19
self-aminoacylation (biotinyl-Trp-oxazolone): 2.5

AUUACUCUGGUCAUCGAGGGA [Fam2.1 aminoacylation ribozyme variant]
self-aminoacylation (biotinyl-Met-oxazolone): 2.09
self-aminoacylation (biotinyl-Trp-oxazolone): 2.13

AUUAUCCUGGUCAUCGAGGGA [Fam2.1 aminoacylation ribozyme variant]
self-aminoacylation (biotinyl-Leu-oxazolone): 2.02

AUUCACAUAGGUCAUCGGGGG [Fam2.2 aminoacylation ribozyme variant]
self-aminoacylation (biotinyl-Met-oxazolone): 2.28
self-aminoacylation (biotinyl-Trp-oxazolone): 2.66

AUUCACCGAGGUCAUCGGGAG [Fam2.2 aminoacylation ribozyme variant]
self-aminoacylation (biotinyl-Phe-oxazolone): 4.74
self-aminoacylation (biotinyl-Met-oxazolone): 2.23

AUUCACCUAGAUCAUCGGGUA [Fam2.2 aminoacylation ribozyme variant]
self-aminoacylation (biotinyl-Phe-oxazolone): 5.46
self-aminoacylation (biotinyl-Met-oxazolone): 2.12

AUUCACCUAGGUCAUCUCGUG [Fam2.2 aminoacylation ribozyme variant]
self-aminoacylation (biotinyl-Leu-oxazolone): 2.29
self-aminoacylation (biotinyl-Phe-oxazolone): 5.77

AUUUCCCUGGUCAUCAAGUGA [Fam2.1 aminoacylation ribozyme variant]
self-aminoacylation (biotinyl-Leu-oxazolone): 2.2
self-aminoacylation (biotinyl-Phe-oxazolone): 2.51
self-aminoacylation (biotinyl-Trp-oxazolone): 2.88

CAGCUUCAAACAAUCGGUCUG [Fam1A.1 aminoacylation ribozyme variant]
self-aminoacylation (biotinyl-Leu-oxazolone): 2.01
self-aminoacylation (biotinyl-Phe-oxazolone): 52
self-aminoacylation (biotinyl-Trp-oxazolone): 27.1

CCACACUUCAAGCAAGCGGUG [Fam1B.1 aminoacylation ribozyme variant]
self-aminoacylation (biotinyl-Leu-oxazolone): 3.19
self-aminoacylation (biotinyl-Met-oxazolone): 2.45
self-aminoacylation (biotinyl-Trp-oxazolone): 2.4

CCACACUUCGAGCAAUCGGGC [Fam1B.1 aminoacylation ribozyme variant]
self-aminoacylation (biotinyl-Leu-oxazolone): 2.07
self-aminoacylation (biotinyl-Phe-oxazolone): 9.16

CCACAGUUCAAGCAAUCGCUC [Fam1B.1 aminoacylation ribozyme variant]
self-aminoacylation (biotinyl-Leu-oxazolone): 2.43
self-aminoacylation (biotinyl-Phe-oxazolone): 2.03

CCACUUCAAUCAAUCGGUCUG [Fam1A.1 aminoacylation ribozyme variant]
self-aminoacylation (biotinyl-Leu-oxazolone): 2.1
self-aminoacylation (biotinyl-Phe-oxazolone): 41.8
self-aminoacylation (biotinyl-Trp-oxazolone): 29.4

CCCGACUUCAAGCAAUCGGUC [Fam1B.1 aminoacylation ribozyme variant]
self-aminoacylation (biotinyl-Leu-oxazolone): 2.85
self-aminoacylation (biotinyl-Phe-oxazolone): 91.8
self-aminoacylation (biotinyl-Trp-oxazolone): 47.6

CGACUUCAAACAAUCGGUUUG [Fam1A.1 aminoacylation ribozyme variant]
self-aminoacylation (biotinyl-Leu-oxazolone): 2.33
self-aminoacylation (biotinyl-Phe-oxazolone): 63.5
self-aminoacylation (biotinyl-Trp-oxazolone): 32.7

CUACUUCAAACAAUCGCUGUG [Fam1A.1 aminoacylation ribozyme variant]
self-aminoacylation (biotinyl-Leu-oxazolone): 2.54

CUGUUUCAAACAAUCGGUCUG [Fam1A.1 aminoacylation ribozyme variant]
self-aminoacylation (biotinyl-Leu-oxazolone): 2.48
self-aminoacylation (biotinyl-Phe-oxazolone): 96.2
self-aminoacylation (biotinyl-Trp-oxazolone): 38.4

CUUCUUCAACCAAUCGGUCUG [Fam1A.1 aminoacylation ribozyme variant]
self-aminoacylation (biotinyl-Phe-oxazolone): 9.05
self-aminoacylation (biotinyl-Trp-oxazolone): 6.07

GAGUUUGCUAAUAGUCGAAAG [Fam3.1 aminoacylation ribozyme variant]
self-aminoacylation (biotinyl-Phe-oxazolone): 13.3
self-aminoacylation (biotinyl-Trp-oxazolone): 5.05

GUACUUCAAACAAUCGGACUG [Fam1A.1 aminoacylation ribozyme variant]
self-aminoacylation (biotinyl-Phe-oxazolone): 5.92
self-aminoacylation (biotinyl-Trp-oxazolone): 5.26

GUACUUCAAAUAAUCGGUCUG [Fam1A.1 aminoacylation ribozyme variant]
self-aminoacylation (biotinyl-Phe-oxazolone): 10.4
self-aminoacylation (biotinyl-Trp-oxazolone): 10.7

UAACUUCAAACAAUCGGUCUG [Fam1A.1 aminoacylation ribozyme variant]
self-aminoacylation (biotinyl-Leu-oxazolone): 2.04
self-aminoacylation (biotinyl-Phe-oxazolone): 55.3
self-aminoacylation (biotinyl-Trp-oxazolone): 27.1

UAAUUUGCUAAUAGUCGCAAG [Fam3.1 aminoacylation ribozyme variant]
self-aminoacylation (biotinyl-Phe-oxazolone): 2.21
self-aminoacylation (biotinyl-Trp-oxazolone): 2.01

UAGUUUGCUAAUAGUCGCAAG [Fam3.1 aminoacylation ribozyme variant]
self-aminoacylation (biotinyl-Phe-oxazolone): 9.38
self-aminoacylation (biotinyl-Trp-oxazolone): 3.18

UCACCCUUCAAGCAAUCGGUC [Fam1B.1 aminoacylation ribozyme variant]
self-aminoacylation (biotinyl-Phe-oxazolone): 10.5
self-aminoacylation (biotinyl-Trp-oxazolone): 6.03

UCACUCUUCAAGCAAUCGGUC [Fam1B.1 aminoacylation ribozyme variant]
self-aminoacylation (biotinyl-Phe-oxazolone): 27
self-aminoacylation (biotinyl-Trp-oxazolone): 12.7

UCACUUCAAACAAUCGGUCUG [Fam1A.1 aminoacylation ribozyme variant]
self-aminoacylation (biotinyl-Leu-oxazolone): 2.11
self-aminoacylation (biotinyl-Phe-oxazolone): 70.7
self-aminoacylation (biotinyl-Trp-oxazolone): 35.1

UUAGUUCAAACAAUCGGUCUG [Fam1A.1 aminoacylation ribozyme variant]
self-aminoacylation (biotinyl-Phe-oxazolone): 4.01
self-aminoacylation (biotinyl-Trp-oxazolone): 2.94
